Measurements as given in publication doi:10.1101/422709 (bioRxiv, 2019).

Biological target: the molecule itself
Assay: crystal structure

Row | Protein | stoichiometry N
1 | phosphoribulokinase from Chlamydomonas reinhardtii (enzyme, UniProt P19824 32-375, looked up) DKDKTVVIGLAADSGCGKSTFMRRMTSIFGGVPKPPAGGNPDSNTLISDMTTVICLDDYHCLDRNGRKVKGVTALAPEAQNFDLMYNQVKALKEGKSVDKPIYNHVSGLIDAPEKIESPPILVIEGLHPFYDKRVAELLDFKIYLDISDDIKFAWKIQRDMAERGHSLESIKSSIAARKPDFDAYIDPQKKDADMIIQVLPTQLVPDDKGQYLRVRLIMKEGSKMFDPVYLFDEGSTISWIPCGRKLTCSFPGIKMFYGPDTWYGQEVSVLEMDGQFDKLEELIYVESHLSNTSAKFYGEITQQMLKNSGFPGSNNGTGLFQTIVGLKVREVYERIVKKDVVPV | 2
2 | phosphoribulokinase from Arabidopsis thaliana (enzyme, UniProt P25697 47-395, looked up) AQETIVIGLAADSGCGKSTFMRRLTSVFGGAAKPPKGGNPDSNTLISDTTTVICLDDYHSLDRYGRKEQKVTALDPRANDFDLMYEQVKALKNGIAVEKPIYNHVTGLLDPPELIQPPKILVIEGLHPMFDERVRDLLDFSIYLDISNEVKFAWKIQRDMAERGHSLESIKASIEARKPDFDAFIDPQKQYADAVIEVLPTTLIPDDNEGKVLRVRLIMKEGVKYFSPVYLFDEGSTISWIPCGRKLTCSYPGIKFNYEPDSYFDHEVSVLEMDGQFDRLDELIYVESHLSNLSTKFYGEVTQQMLKHADFPGSNNGTGLFQTIVGLKIRDLYEQLIANKATARAEAKA | 2
